B1: PRIM1 (parent)
chain: CCSSADICPKCWTLMTMAIRIIDR
B2: FAM46D (parent)
chain: LELKFVSSLRRQFEFSVDSFQIVL

Variants of: B1
Experiment: protein stability index of a GFP-peptide fusion (GPS, HEK-293T) (PSI 1-6); higher = more stable
Conditions: c terminus: a fixed tail appended
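Note: lentivirally expressed fusions sorted by FACS into six bins by GFP to DsRed ratio, PSI derived from sequencing read proportions per bin multiplied by bin number.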

Protein stability index: each site, then its substitutions
C1: E 1.6, H 1.87, V 2.87, Q 1.85, M 2.5, D 2.01, Y 1.37, R 2.01, F 1.5, I 1.53, N 1.49, L 2, W 2.25, T 2.12, P 1.78
P9: Q 1.67, N 1.29, H 2.29, V 2.27, K 2.69, F 1.59, T 1.47, M 1.86, A 1.53, S 1.96, L 1.77, Y 1.55, C 2.43, D 1.64, G 1.9, I 1.78, R 1.73
C8: V 2.88, K 2.95, R 3.94, S 1.54, A 3.21, Q 1.8, I 3.3, N 2.83, L 3.02
T16: M 1.52, K 1.61, G 2.56, V 1.87, D 2.07, F 2.12, Q 2.54, H 2.04, C 1.61, Y 2.08
K10: M 1.92, R 2.3, Y 1.85, F 1.95, H 2, E 1.56, C 2.62, Q 1.98, N 1.81, T 2.71
T13: N 1.38, I 2.13, F 1.53, K 2.46, L 1.49, S 1.96, W 2.31, G 1.91, Q 2.18, D 1.61, Y 2.19, A 2.63
D23: Q 2.09, W 2.15, M 1.64, E 1.94, V 2.31, L 2.25, R 1.68, K 1.41, P 2.42, Y 1.61, A 2.29, N 1.47
S3: F 1.51, P 1.28, C 1.65, T 1.53, I 1.87, K 1.45, N 1.95, H 2.16, A 1.82, M 2.7, Y 2.43, E 2.04, L 2.32, D 1.56
D6: V 1.47, Q 2.44, K 2.14, M 2.15, H 2.49, W 2.91, A 1.7, Y 1.58, E 2.22, T 2.29, S 1.86, I 1.91, G 1.47, F 2.11
R24: H 1.95, A 1.89, Q 1.52, D 2.09, V 2.46, W 2.19, K 1.25, I 1.69, T 1.97, Y 1.78, C 2.19, F 1.68, P 3.32
I19: V 2.58, P 2.8, F 1.57, M 2.33, T 2.98, G 2.21, L 2.12, D 2.92, H 2.8, K 2.77, W 1.83, Y 2.05, Q 1.81
I22: R 2.5, Y 2.09, T 2.97, Q 2.81, L 2.3, M 1.8, P 2.71, N 2.52, F 1.59, W 1.72, A 2.1
C2: G 1.6, P 2.21, H 1.69, K 1.45, Q 1.9, V 2.06, W 1.78, I 1.74, L 2.55, N 2.03, S 1.96, D 2.41, A 2.49, F 1.83
M15: F 1.47, R 2.35, Q 1.95, A 2.96, H 2.25, C 1.77, P 2.13, G 1.69, W 1.98, L 1.59, T 2.34, I 2.87
M17: L 1.74, K 2.56, N 2.48, C 1.15, A 2.03, G 1.96, H 2.38, Y 2.15, D 2.33, E 2.5, S 2.95
S4: F 2.39, L 2.24, I 1.79, P 1.67, Q 2.66, H 1.72, K 2.2, G 1.85, D 1.48, T 1.63, V 2.19, Y 1.91, R 2.42, W 1.51, A 1.87
I21: Y 1.73, P 2.28, T 1.68, D 2.68, N 2.46, H 2.23, W 1.9, A 2.2, Q 2.05
R20: P 2.25, W 1.65, T 1.67, N 2.18, H 2.05, G 2.23, V 1.96, S 2.01, F 1.46, Q 3.56, Y 1.91, L 1.77
A18: G 2.06, E 1.45, P 2.1, V 2.18, W 2.92, F 1.64, Q 2.71, H 2.1, D 2.39, K 2.17, I 1.79, M 1.24, C 2.45
L14: H 1.6, G 1.27, D 1.95, Y 1.71, P 2.27, M 1.55, W 2.62, F 2.06, K 2, Q 1.9, E 2.06, C 1.8, N 1.82, I 1.75, A 2.21
A5: C 2.01, Q 1.51, H 1.71, S 2.63, R 1.67, K 1.93, G 1.7, V 1.64, D 1.41, Y 3.67, F 2.5, I 1.33, L 1.15, M 1.79
W12: T 1.88, L 1.56, Q 2.75, E 2.05, G 2.2, K 2.64, A 2.29, S 2.23, P 1.48, I 1.83, V 1.23, R 2.56, F 1.69
C11: K 1.82, A 4.39, D 3.13, H 2.43, E 3.11, T 1.76
I7: Q 2.05, M 1.52, T 1.77, H 1.91, N 1.69, A 1.87, L 2.56, Y 1.57, V 1.88, R 1.85, F 2.63, C 1.94, K 2.65, D 2.35, E 2.21

Variants of: B2
Experiment: as above
Conditions: c terminus: a fixed tail appended

Protein stability index: each site, then its substitutions
L1: A 2.03, R 2.33, V 2.79, I 2.7, G 2.02, Q 2.32, E 2.65, F 3.04, W 1.92, D 1.9, Y 2.56, T 2.9, P 2.78, H 2.49, M 4.32, K 2.36, N 2.9, S 2.57
E2: Q 2.48, T 2.78, S 3, L 1.7, K 3.23, D 2.46, C 2.74, R 3.42, N 2.6, G 2.65, M 2.57, W 2.81, H 2.95, V 3.32, A 2.56, I 1.99, F 2.6
